According to article PMC2915670:

Tests used:
[1] = target: FMDV 2C(61–318) (foot-and-mouth disease virus, type [change])
FMDV 2C(34-318) = FMDV 2C(34-318) (Foot-and-mouth disease virus type O1K, UniProt P03305 1141-1425); assay: EMSA
FMDV 2C(34-318), sequence (P03305 1141-1425): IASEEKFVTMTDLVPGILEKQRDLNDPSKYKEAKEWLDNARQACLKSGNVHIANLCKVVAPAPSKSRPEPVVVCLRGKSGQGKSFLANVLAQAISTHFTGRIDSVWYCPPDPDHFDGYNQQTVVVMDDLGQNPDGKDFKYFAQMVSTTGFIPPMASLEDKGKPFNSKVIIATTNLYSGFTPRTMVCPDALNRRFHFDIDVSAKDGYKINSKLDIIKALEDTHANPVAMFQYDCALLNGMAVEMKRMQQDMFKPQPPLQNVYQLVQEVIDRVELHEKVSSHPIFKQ

For FMDV 2C(61–318) (domain or fragment), the ATPase activity (pmol Pi/pmol protein/min) [1] was 0.46.

B1: 12-base ssRNA (ssRNA)
RNA: CGCGAAUAAUUU
B1: binds (FMDV 2C(34-318)).

B2: 20-base ssRNA (ssRNA)
RNA: AAUUCUAAGGGCCAGCGAGA
For B2, the Kd (FMDV 2C(34-318)) was about 5 µM.
